Experimental data: patent publication US20050163775A1, “Combination therapy for B cell disorders” (Genentech, Inc., priority 2003, published 2005)
Values belong to the molecule of their own block, whether it stands above or below them. Where a SMILES comes first, the peptide text is derived from it. Bridges are numbered along the chain shown (N, C = ends). Where no end group is shown, it is not given here.

Tests used:
[1] = molecular target: T1, BLyS (Homo sapiens, UniProt Q9Y275); experiment: Competitive displacement ELISA (biotinylated miniBR3), peptide-PEG conjugates; type: binding
T1 construct: A DNA fragment encoding human BAFF (residues 82-285) was cloned; His-tag (with thrombin cleavage site) (N, cleaved yes); made in house; host or cells: E. coli BL21 (DE3)
T1 sequence (Q9Y275 82-285): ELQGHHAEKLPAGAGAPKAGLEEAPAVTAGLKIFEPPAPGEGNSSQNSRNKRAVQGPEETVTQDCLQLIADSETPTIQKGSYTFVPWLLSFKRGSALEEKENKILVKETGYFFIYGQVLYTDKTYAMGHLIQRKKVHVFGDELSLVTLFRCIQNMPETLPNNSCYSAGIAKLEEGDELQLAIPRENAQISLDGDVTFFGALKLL
Procedure: The plate was washed with PBS and blocked with 1% skim milk in PBS. […] After washing with PBS/0.05% Tween, 100 μl well of each dilution was transferred and incubated for 1 hour at room temperature. The plate was washed with PBS/0.05% Tween and incubated 15 min with 100 μl/well of 0.1 U/ml Streptavidin-POD (Boehringer Mannheim) in PBS/0.05% Tween.

[2] = Expected serum IgG and IgM in responding human patients; type: in vivo; settings: human patients responding to treatment
[3] = system: B cells; experiment: B cell depletion by anti-CD20 mAb, BR3-Fc or combination in hCD20+ mice (FIG. 29, 30); type: in vivo, mouse
Procedure: FACS analysis was performed on of spleen, blood, lymph node B cells (gated on CD21^+CD23^+).
(§1) Mice were treated with control IgG2a, BAFFR/BR3-Fc (100 μg/mouse IP daily for 12 days), anti-hCD20 mAb (100 μg/mouse IP on day 9) or the combination of BAFFR/BR3-Fc and anti-hCD20 mAb (same dosing as single treatment groups). B220^+ splenocytes were isolated on day 13 and stained for CD21 and CD23. N=5 mice/group.
In the Experimental Examples, the BR3-Fc or BAFFR/BR3-Fc used is hBR3-Fc of SEQ ID. NO. 2. […] Each group consisted of 4 mice. Two days following the last injection, the mice were sacrificed and analyzed for hCD20^+ B cells. FACS analysis of spleen, blood, lymph node and Peyer's Patches were analyzed for B cell markers (CD21^+CD23^+).
as §1, with “For the experiment shown in FIG. 30, hCD20 Tg+ mice” for “Mice”, “mice/group. […] The mice were treated with single doses of 0.1 mg control IgG2a, BAFF/BR3-Fc or anti-hCD20 mAb. Splenocytes were analyzed on day 4. N=5 mice/group.” for “mice/group.”

[4] = molecular target: T2, BAFF/BLyS (Mus musculus, UniProt Q9WU72); settings: lupus-prone mice; cited from earlier work
T2 construct: host or cells: lupus-prone mice
T2 sequence (Q9WU72 127-309 limits assumed): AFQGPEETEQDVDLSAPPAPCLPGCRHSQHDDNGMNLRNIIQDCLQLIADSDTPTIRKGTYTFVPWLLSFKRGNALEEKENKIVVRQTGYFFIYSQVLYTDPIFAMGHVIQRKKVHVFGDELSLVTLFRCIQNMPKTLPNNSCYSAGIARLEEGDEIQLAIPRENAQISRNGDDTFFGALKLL

[5] = Serum IgG and IgM in BR3-Fc treated mice; type: in vivo, mouse
[6] = system: T-independent B cell response; experiment: T-independent immune response to Streptococcus pneumoniae IV after B cell depletion; type: in vivo, mouse; settings: mAb day 0, S. pneumoniae IV i.v. day 7, response day 11
Procedure: On the 3 panels at the right, the spleen cells were stained for the streptococcus polysaccharide-phosphatidyl choline (the TI antigen). CD138 is a marker for plasma cells.
Next, it was determined whether upon B cell depletion, the mice were able to develop T independent immune response. […] At day 7, the mice were injected i.v. with Streptococcus pneumoniae IV to induce a response to the polysaccharide.

[7] = system: lymphoid B cell lines; settings: binds human complement; cited from earlier work
[8] = system: B cells; settings: peripheral blood, lymph nodes, bone marrow; cited from earlier work
[9] = molecular target: T3, human BAFF (residues 82-285) (human, UniProt Q9Y275 82-285); experiment: phage display selection on BAFF
T3 construct: Coated on plates in the ELISAs; also used biotinylated or free in solution for phage sorting; also called BAFF82-285; BLyS82-285
T3 sequence (Q9Y275 82-285): as the sequence (Q9Y275 82-285) above

[10] = molecular target: T3, human BAFF (residues 82-285); experiment: competitive displacement ELISA on BAFF-coated plates, biotinylated miniBR3 as tracer

- IC50 ([1]; 3 ng/ml biotinylated miniBR3, four-parameter fit): 14 nM
- IC50 ([1]; separate experiment): 15 nM
Molecule: CC(=O)N[C@@H](CCC(=O)O)C(=O)N[C@H]1CSSC[C@@H](C(=O)NCC(=O)N[C@@H](CC(C)C)C(=O)N[C@@H](CC(C)C)C(=O)N[C@@H](CCCNC(=N)N)C(N)=O)NC(=O)[C@@H]2CCCN2C(=O)[C@H](C(C)C)NC(=O)[C@H](Cc2c[nH]c3ccccc23)NC(=O)[C@H](Cc2c[nH]cn2)NC(=O)[C@H](CCCNC(=N)N)NC(=O)[C@H](C(C)C)NC(=O)[C@H](CC(C)C)NC(=O)[C@H](CC(C)C)NC(=O)[C@H](CC(=O)O)NC(=O)[C@H](Cc2ccccc2)NC1=O [BLyS0048] (Ac-ECFDLLVRHWVPCGLLR-NH2; disulfide 2-13)

Molecule: BR3-Fc: hBR3-Fc immunoadhesin of SEQ ID NO. 2, BAFF antagonist
- serum IgG and IgM levels [2]: reduction in serum IgG and IgM levels
- T2 and follicular B cells in the spleen ([3]; hCD20+ mice): decreases
- marginal zone B cells in the spleen ([3]; hCD20+ mice): decreases
- mature circulating B cells in the blood and lymph nodes ([3]; hCD20+ mice, 100 micrograms every other day Days 1 through 12): decreases
- MZ and T2/FO B cells in spleen (FIG. 30, panel 3) ([3]; treatment for ~2 weeks, 100 μg/mouse IP daily for 12 days, splenocytes day 13): marked decrease
- autoimmune serologies, renal pathology and mortality [4]: improved autoimmune serologies, renal pathology and mortality
- Serum levels of IgG and IgM [5]: reduced

Molecule: rituximab [Rituxan]
- B cell response from the marginal zone and germinal centers of the spleen to T-independent antigen [6]: did not affect the B cell response
- complement-dependent cytotoxicity (CDC) [7]: lyses lymphoid B cell lines through complement-dependent cytotoxicity (CDC)
- B cell depletion [8]: depletes B cells from the peripheral blood, lymph nodes, and bone marrow

- binding result [9]: binds
B1: SEQ ID NO 102 (peptide)
peptide: ECFDLLVNRWVDCRLLI

- binding result [9]: binds
B2: SEQ ID NO 124 (peptide)
peptide: ECFDRLVNAWVDCRLLA
modifications: disulfide 2-13 (inferred)

- binding result [9]: binds
B3: SEQ ID NO 123 (peptide)
peptide: ECFDRLVNGWVPCAVLH
modifications: disulfide 2-13 (inferred)

- binding result [9]: binds
B4: SEQ ID NO 127 (peptide)
peptide: ECFDALVHRWVDCAVLG
modifications: disulfide 2-13 (inferred)

- binding result [9]: binds
B5: SEQ ID NO 126 (peptide)
peptide: ECFDALVRRWVDCSLLR

- binding result [9]: binds
B6: SEQ ID NO 113 (peptide)
peptide: ECFDRLVNRWVPCNLIV
modifications: disulfide 2-13 (inferred)

- binding result [9]: binds
B7: SEQ ID NO 115 (peptide)
peptide: ECFDLLVRRWVPCHLIT

- binding result [9]: binds
B8: SEQ ID NO 98 (peptide)
peptide: ECFDRLVGHWVPCAALI
modifications: disulfide 2-13 (inferred)

- binding result [9]: binds
B9: SEQ ID NO 106 (peptide)
peptide: ECFDPLVGHWVPCSVLT
modifications: disulfide 2-13 (inferred)

- binding result [9]: binds
B10: SEQ ID NO 100 (peptide)
peptide: ECFDPLVRVWVDCSILD
modifications: disulfide 2-13 (inferred)

- binding result [9]: binds
B11: SEQ ID NO 107 (peptide)
peptide: ECFDPLVNRWVDCVALH
modifications: disulfide 2-13 (inferred)

- binding result [9]: binds
B12: SEQ ID NO 121 (peptide)
peptide: ECFDHLVRIWVPCTALA
modifications: disulfide 2-13 (inferred)

- binding result [9]: binds
B13: SEQ ID NO 105 (peptide)
peptide: ECFDLLVRAWVPCHLID

- binding result [9]: binds
B14: SEQ ID NO 101 (peptide)
peptide: ECFDSLVNAWVPCSAIR
modifications: disulfide 2-13 (inferred)

- binding result [9]: binds
B15: SEQ ID NO 103 (peptide)
peptide: ECFDPLVRIWVACDRLA

- binding result [9]: binds
B16: SEQ ID NO 122 (peptide)
peptide: ECFDTLVNAWVPCNLLD
modifications: disulfide 2-13 (inferred)

- binding result [9]: binds
B17: SEQ ID NO 112 (peptide)
peptide: ECFDILVNAWVPCRVIG
modifications: disulfide 2-13 (inferred)

- binding result [9]: binds
B18: SEQ ID NO 108 (peptide)
peptide: ECFDRLVNLWVDCALLN
modifications: disulfide 2-13 (inferred)

- binding result [9]: binds
B19: SEQ ID NO 110 (peptide)
peptide: ECFDSLVRLWVPCNLLR

- binding result [9]: binds
B20: SEQ ID NO 120 (peptide)
peptide: ECFDVLVHRWVPCGLIR

- binding result [10]: binds
B21: Ac-ECFDLLVRAWVPCSVLK-NH2 (BLyS0051) (peptide)
peptide: Ac-ECFDLLVRAWVPCSVLK-NH2
modifications: disulfide 2-13 (inferred)

- binding result [9]: binds
B22: SEQ ID NO 116 (peptide)
peptide: ECFDILVGRWVPCGLIH
modifications: disulfide 2-13 (inferred)

- binding result [9]: binds
B23: SEQ ID NO 99 (peptide)
peptide: ECFDPLVARWVPCHLIN
modifications: disulfide 2-13 (inferred)

- binding result [9]: binds
B24: SEQ ID NO 109 (peptide)
peptide: ECFDVLVSAWVDCARLN
modifications: disulfide 2-13 (inferred)

- binding result [10]: binds
B25: Ac-ECFDLLVRHWVACGLLR-NH2 (BLyS0027) (peptide)
peptide: Ac-ECFDLLVRHWVACGLLR-NH2
modifications: disulfide 2-13 (inferred)

- binding result [9]: binds
B26: SEQ ID NO 118 (peptide)
peptide: ECFDPLVRVWVPCTVLR

- binding result [9]: binds
B27: SEQ ID NO 114 (peptide)
peptide: ECFDRLVRAWVPCTALT
modifications: disulfide 2-13 (inferred)

- binding result [9]: binds
B28: SEQ ID NO 119 (peptide)
peptide: ECFDSLVRAWVPCGVLS

- binding result [9]: binds
B29: SEQ ID NO 125 (peptide)
peptide: ECFDLLVNDWVPCGAIT
modifications: disulfide 2-13 (inferred)

- binding result [9]: binds
B30: SEQ ID NO 97 (peptide)
peptide: ECFDILVDRWVPCAILH
modifications: disulfide 2-13 (inferred)

- binding result [9]: binds
B31: SEQ ID NO 104 (peptide)
peptide: ECFDPLVGRWVPCTLLH
modifications: disulfide 2-13 (inferred)

- binding result [9]: binds
B32: SEQ ID NO 117 (peptide)
peptide: ECFDPLVRDWVRCDILT
modifications: disulfide 2-13 (inferred)
